Molecular target: the molecule itself
Assay: SEC; analytical gel filtration of TOP2B (45–444) in the presence and absence of AMPPNP

B1: human TOP2B ATPase domain (45–444) (domain or fragment, UniProt Q02880-2 45-444, looked up)
chain: SVERVYQKKTQLEHILLRPDTYIGSVEPLTQFMWVYDEDVGMNCREVTFVPGLYKIFDEILVNAADNKQRDKNMTCIKVSIDPESNIISIWNNGKGIPVVEHKVEKVYVPALIFGQLLTSSNYDDDEKKVTGGRNGYGAKLCNIFSTKFTVETACKEYKHSFKQTWMNNMMKTSEAKIKHFDGEDYTCITFQPDLSKFKMEKLDKDIVALMTRRAYDLAGSCRGVKVMFNGKKLPVNGFRSYVDLYVKDKLDETGVALKVIHELANERWDVCLTLSEKGFQQISFVNSIATTKGGRHVDYVVDQVVGKLIEVVKKKNKAGVSVKPFQVKNHIWVFINCLIENPTFDSQTKENMTLQPKSFGSKCQLSEKFFKAASNCGIVESILNWVKFKAQTQLNKKCS
notes: Cloned by LIC into the pET His6 MBP Asn10 TEV LIC vector (1C), Addgene plasmid 29654; The models hold residues 46–429 (7QFO), 47–422 (7QFN) and 45–422 (7ZBG); not shown: His6, N-terminal, cleaved; MBP, N-terminal, cleaved
In the case of B1, the “stoichiometry N” value is reported as 2.

Source: publication PMC9592559 (Structure(London, England:1993), 2022)
